Reference: patent publication US20250332297A1, “DLL3-SPECIFIC BINDING CONSTRUCTS AND THEIR USE IN RADIOTHERAPY” (MOLECULAR PARTNERS AG, priority 2024, published 2025)

T1: Human DLL3 expressed on cells (HEK293T-hDLL3, NCI-H82, SHP-77, MC38-hDLL3) (human, UniProt Q9NYJ7 27-618)
T1 construct: also called DLL3 endogenously expressed on human cells
T1 sequence: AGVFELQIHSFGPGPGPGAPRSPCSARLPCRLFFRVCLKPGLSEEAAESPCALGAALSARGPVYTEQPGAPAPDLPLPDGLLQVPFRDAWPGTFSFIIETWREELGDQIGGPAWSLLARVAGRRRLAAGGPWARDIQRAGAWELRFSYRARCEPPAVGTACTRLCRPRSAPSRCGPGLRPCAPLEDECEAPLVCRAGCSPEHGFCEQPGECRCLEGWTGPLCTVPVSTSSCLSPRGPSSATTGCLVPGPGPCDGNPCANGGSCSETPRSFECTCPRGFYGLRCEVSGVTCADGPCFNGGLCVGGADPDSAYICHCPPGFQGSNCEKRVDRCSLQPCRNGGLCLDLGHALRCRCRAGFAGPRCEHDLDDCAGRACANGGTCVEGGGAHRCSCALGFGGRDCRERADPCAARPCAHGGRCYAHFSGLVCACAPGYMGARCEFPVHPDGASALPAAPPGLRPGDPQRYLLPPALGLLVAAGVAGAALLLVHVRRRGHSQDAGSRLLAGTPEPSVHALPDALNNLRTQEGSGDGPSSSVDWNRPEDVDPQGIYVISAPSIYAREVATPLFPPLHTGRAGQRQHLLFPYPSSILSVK

T2: hDLL3 ECD-Avi-Fckih (biotinylated extracellular domain of human DLL3, residues 27 to 466, Avi-tag, 3C site, … (human, UniProt Q9NYJ7 27-466, biotinylated at the Avi-tag))
T2 construct: The make-up of the second Fc chain of the knob-into-hole pair is not described; also called bio-DLL3; recombinant human DLL3; not shown: Avi-tag, 3C protease recognition site and Fc knob into hole
T2 sequence: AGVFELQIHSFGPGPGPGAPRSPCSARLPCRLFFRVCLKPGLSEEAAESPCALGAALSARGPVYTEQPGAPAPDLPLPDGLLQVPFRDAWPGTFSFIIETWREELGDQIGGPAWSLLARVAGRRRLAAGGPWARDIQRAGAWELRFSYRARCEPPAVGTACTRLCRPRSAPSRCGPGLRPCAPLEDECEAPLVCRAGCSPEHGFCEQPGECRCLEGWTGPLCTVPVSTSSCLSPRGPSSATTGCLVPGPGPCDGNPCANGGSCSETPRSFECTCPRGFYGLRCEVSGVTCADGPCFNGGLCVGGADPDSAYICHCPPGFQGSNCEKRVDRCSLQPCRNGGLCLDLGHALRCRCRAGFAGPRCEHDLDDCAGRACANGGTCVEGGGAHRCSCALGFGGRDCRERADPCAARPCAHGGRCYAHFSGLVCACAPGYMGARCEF


Legend:
[1] = molecular target: Human DLL3 expressed on cells (HEK293T-hDLL3, NCI-H82, SHP-77, MC38-hDLL3) (human) (UniProt Q9NYJ7); test: flow cytometry titration on HEK293T-hDLL3 cells, without HSA
[2] = molecular target: Human DLL3 expressed on cells (HEK293T-hDLL3, NCI-H82, SHP-77, MC38-hDLL3) (human) (UniProt Q9NYJ7); test: flow cytometry titration on HEK293T-hDLL3 cells, with HSA
[3] = molecular target: T1, Human DLL3 expressed on cells …; test: flow cytometry titration on HEK293T-hDLL3 cells, without HSA
Protocol: (§1) Cell binding titration assays were performed for selected His-tagged single domain (1 D) and two domain (2D) designed ankyrin repeat proteins to determine binding to human DLL3 expressed on HEK293T-huDLL3 cells in absence and presence of human serum albumin. […] HEK293T-hDLL3 cells are HEK293T cells that were stably transfected to express human DLL3 on their surface.
(§2) In brief, 1×10⁵ cells/well were resuspended in 100 μl DARPin dilution (500 nM, 1:5 serial diluted) and incubated for 1 h at 4° C. Cells were washed twice with PBS and resuspended in 100 μl anti-DARPin antibody (rabbit anti-DARPin 1.4.8) and LIVE/DEAD fixable cell stain (1:1000, Thermo Fisher #L34957). This step was performed in absence and presence of 10 pM Human Serum Albumin (CSL Behring #150570). After incubation and washing, cells were incubated with detection antibody for 30 minutes (Goat […] IgG (H+L), AF647, Thermo Fisher #21445). Cells were fixed (Paraformaldehyde Solution, LucernaChem) and acquired at Attune N×T (Thermo Life Technologies). Raw fcs files were exported and analyzed using FlowJo software. MFI values of live AF647-positive cells were exported from FlowJo and plotted using GraphPad Prism software.

[4] = molecular target: T2, hDLL3 ECD-Avi-Fckih (biotinylated …); test: SPR (ProteOn), biotinylated hDLL3 ECD-Avi-Fckih on chip, DARPin as analyte, 1:1 Langmuir fit
Protocol: Kinetic binding parameters and binding affinities of two domain (2D) ankyrin repeat proteins comprising an ankyrin repeat domain with binding specificity for DLL3 and an ankyrin repeat domain with binding specificity for serum albumin were determined by surface plasmon resonance (SPR) multi-trace analysis.
In brief, a SPR assay was used to determine the binding kinetics to the target human DLL3. The data were generated using BioRad ProteOn instrument in SPR running buffer (PBS, pH 7.4 containing 0.005% Tween 20®). […] The chip was coated with biotinylated target (bio-DLL3) to reach a signal intensity of 1780 RU. […] Each injection was followed by a regeneration step with 16 mM H₃PO₄ for 18 s. […] The bio-DLL3 target used was as described in U.S. 63/550,951, i.e. the extracellular domain (ECD) of human DLL3 protein (Q9NYJ7, Gene ID: 10683, residues 27 to 466; purchased from Evitria) linked via an Avi-tag (for site-directed biotinylation), followed by a 3C protease recognition site, to a Fc knob into hole (hDLL3 ECD-Avi-Fcₖᵢₕ).

mouse serum albumin [5] = molecular target: T3, mouse serum albumin (mouse, UniProt P07724 25-608); test: SPR (Bruker Sierra SPR-32), MSA on chip, DARPin as analyte, 1:1 Langmuir fit
T3 construct: also called MSA
Protocol: (§3) Similarly, a SPR assay was used to determine the binding kinetics to human or mouse serum albumin. […] All analytes (3-fold dilution ranging from 1000-12.35 nM) were injected in succession for 240 s (25 μl/min) and dissociation was recorded for 600 s (25 μl/min).

[6] = molecular target: T1, Human DLL3 expressed on cells …; test: flow cytometry titration on NCI-H82 cells (endogenous DLL3), with 10 uM HSA
Protocol: (§4) Furthermore, cell binding titration assays were also performed with selected two domain (2D) designed ankyrin repeat proteins to determine binding to human cells expressing DLL3 endogenously, in absence and presence of human serum albumin. For this purpose, NCI-H82 cells were used, a human lung carcinoma cell line which endogenously expresses DLL3 on the surface. […] A non-binding DARPin comprising SEQ ID NO: 22 was used as a negative control.
as §2, with “diluted in PBS, 2% FBS)” for “diluted)”, “C. This step was performed in absence and presence of 10 μM Human Serum Albumine (CSL Behring #150570).” for “C.”, “PBS, 2% FBS” for “PBS”, “LIVE/DEAD” for “LIVE/DEAD fixable”, “Biolegend #423106).” for “Thermo Fisher #L34957). This step was performed in absence and presence of 10 pM Human Serum Albumin (CSL Behring #150570).”, “Solution, TCL119,” for “Solution,”

[7] = molecular target: T1, Human DLL3 expressed on cells …; test: flow cytometry titration on NCI-H82 cells (endogenous DLL3), without HSA
Protocol: as §4
as §2, with “diluted in PBS, 2% FBS)” for “diluted)”, “C. This step was performed in absence and presence of 10 μM Human Serum Albumine (CSL Behring #150570).” for “C.”, “PBS, 2% FBS” for “PBS”, “LIVE/DEAD” for “LIVE/DEAD fixable”, “Biolegend #423106).” for “Thermo Fisher #L34957). This step was performed in absence and presence of 10 pM Human Serum Albumin (CSL Behring #150570).”, “Solution, TCL119,” for “Solution,”

human serum albumin [8] = molecular target: T4, human serum albumin (human, UniProt P02768 25-609); test: SPR (Bruker Sierra SPR-32), HSA on chip, DARPin as analyte, 1:1 Langmuir fit
T4 construct: also called HSA
Protocol: as §3

[9] = molecular target: T1, Human DLL3 expressed on cells …; test: flow cytometry titration on HEK293T-hDLL3 cells, with HSA
Protocol: as §1, §2

human serum albumin [10] = molecular target: human serum albumin (Homo sapiens, UniProt P02768)
mouse serum albumin [11] = molecular target: T5, mouse serum albumin (Mus musculus, UniProt P07724); test: SPR binding of 2D DARPins with different HSA binders to mouse serum albumin (Example 3); conditions: immobilized MSA, Cysteine capped with IAM, 1:1 Langmuir, Table 12
T5 construct: purchased Sigma-Aldrich
T5 sequence (P07724 25-608): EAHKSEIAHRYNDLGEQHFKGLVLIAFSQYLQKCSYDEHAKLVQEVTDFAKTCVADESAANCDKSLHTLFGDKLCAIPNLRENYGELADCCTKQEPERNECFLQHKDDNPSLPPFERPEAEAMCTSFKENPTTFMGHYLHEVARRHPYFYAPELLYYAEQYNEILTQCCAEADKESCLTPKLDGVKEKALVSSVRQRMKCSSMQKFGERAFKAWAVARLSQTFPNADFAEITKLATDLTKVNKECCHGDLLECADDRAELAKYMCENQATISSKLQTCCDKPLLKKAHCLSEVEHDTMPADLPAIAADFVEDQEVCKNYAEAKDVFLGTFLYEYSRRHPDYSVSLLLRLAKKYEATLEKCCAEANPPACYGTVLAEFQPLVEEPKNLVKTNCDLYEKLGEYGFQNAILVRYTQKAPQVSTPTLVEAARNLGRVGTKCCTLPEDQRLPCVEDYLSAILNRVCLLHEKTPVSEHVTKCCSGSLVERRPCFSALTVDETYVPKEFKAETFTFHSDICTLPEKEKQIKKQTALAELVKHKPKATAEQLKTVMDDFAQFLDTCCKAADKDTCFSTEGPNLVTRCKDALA

T3 sequence (P07724 25-608 limits assumed): as the sequence (P07724 25-608) above

Row | EC50 [1] [nM] | EC50 [2] [nM] | EC50 [3] [nM] | Kd [4] [nM] | koff [4] [s⁻¹] | kon [4] [M⁻¹ s⁻¹] | Kd (mouse serum albumin [5]) [nM] | koff (mouse serum albumin [5]) [s⁻¹] | kon (mouse serum albumin [5]) [M⁻¹ s⁻¹] | EC50 [6] [nM] | EC50 [7] [nM] | Kd (human serum albumin [8]) [nM] | koff (human serum albumin [8]) [s⁻¹] | kon (human serum albumin [8]) [M⁻¹ s⁻¹] | EC50 [9] [nM] | fold higher binding affinity to HSA than the Low HSA affinity 2D DARPin (human serum albumin [10]; SPR KD comparison) | Molecule | Koff HSA (human serum albumin [10]) [s⁻¹] | Kon HSA (human serum albumin [10]) [M⁻¹ s⁻¹] | Koff MSA (mouse serum albumin [11]) [s⁻¹] | Kon MSA (mouse serum albumin [11]) [M⁻¹ s⁻¹]
1 | 0.1 | 0.3 | – | – | – | – | – | – | – | – | – | – | – | – | – | – | Rova antibody | – | – | – | –
2 | – | – | 22.1 | 0.953 | 1.79e-05 | 18800 | 507 | 0.0378 | 74700 | 8.1 | 5.4 | 103 | 0.00924 | 89500 | 18.4 | – | MAM283 (two domain ankyrin repeat protein, N-terminal His6-TEV tag) (designed binder, also called 2D DARPin) MRGSHHHHHHENLYFQDLGKKLLEAARAGQDDEVRELLKAGADVNAKDYFSHTPLHLAARNGHLKIVEVLLKAGADVNAKDFAGKTPLHLAADAGHLEIVEVLLKAGADVNAQDIFGKTPADIAADAGHEDIAEVLQKAAGSPTPTPTTPTPTPTTPTPTPTGSDLGKKLLAAAADGQDDEVRELLQAGADVNAKDLFGYTPLHLAAWRGHLEIVEVLLEAGADVNAKDAAGETPLHLAAWFGHLEIVEVLLEAGADVNAQDVQGKTPADLAAKEGHEDIAEVLQQAA | – | – | – | –
3 | – | – | 14.9 | 0.616 | 1.44e-05 | 23300 | 367 | 0.0335 | 91200 | 2.1 | 2.5 | 75 | 0.00923 | 123000 | 16.3 | – | MAM279 (two domain ankyrin repeat protein, N-terminal His6-TEV tag) (designed binder, Cleavage of the tag is not reported; also called 2D DARPin) MRGSHHHHHHENLYFQDLGKKLLEAARAGQDDEVRELLKAGADVNAKDYFSHTPLHLAARNGHLKIVEVLLKAGADVNAKDFAGKTPLHLAADAGHLEIVEVLLKAGADVNAQDIFGKTPADIAADAGHEDIAEVLQKAAGSPTPTPTTPTPTPTTPTPTPTGSDLGKKLLAAAAQGQDDEVRELLKAGANVNAKDLFGYTPLHLAAWRGHLEIVEVLLKAGADVNAKDAAGETPLHLAAWFGHLEIVEVLLKAGADVNAQDLQGKTPADLAAKEGHEDIAEVLQKAA | – | – | – | –
4 | – | – | – | – | – | – | – | – | – | – | – | – | – | – | – | about 10 fold | High HSA affinity 2D DARPin: MAM160 with a GS at the N-terminus and a Cysteine-containing tag at the C-terminus (protein, Ankyrin repeat protein with tag (GS-MAM160-tag)) GSDLGKKLLEAARAGQDDEVRELLKAGADVNAKDYFSHTPLHLAARNGHLKIVEVLLKAGADVNAKDFAGKTPLHLAADAGHLEIVEVLLKAGADVNAQDIFGKTPADIAADAGHEDIAEVLQKAAGSPTPTPTTPTPTPTTPTPTPTGSDLGTKLLSAAADGQDDEVRELLQAGADVNAKDLFGYTPLHLAAWRGHLEIVEVLLEAGADVNAKDAAGLTPLHLAAWFGHLEIVEVLLEAGADVNAQDVQGVTPADLAAKEGHEDIAEVLQQAAGSGSC | 0.0311 | 105000 | 0.0345 | 133000
5 | – | – | 21.2 | 3.03 | 3.79e-05 | 12500 | 335 | 0.0354 | 106000 | 2.6 | 2.6 | 74.3 | 0.00889 | 120000 | 19.6 | – | MAM282 (two domain ankyrin repeat protein, N-terminal His6-TEV tag) (designed binder, also called 2D DARPin) MRGSHHHHHHENLYFQDLGKKLLEAARAGQDDEVRELLKAGADVNAKDYFSHTPLHLAARNGHLKIVEVLLKAGADVNAKDFAGKTPLHLAADAGHLEIVEVLLKAGADVNAQDIFGKTPADIAADAGHEDIAEVLQKAAGSPTPTPTTPTPTPTTPTPTPTGSDLGKKLLAAAREGQDDEVRELLKAGADVNAKDIWGQTPLHIAAWFGHLEIVEVLLKAGADVNAKDQTGHTPLHLAAKFGHLEIVEVLLKAGADVNAQDLLGRTPADLAAEEGHEDIAEVLQKAA | – | – | – | –
